From the supplement of paper PMC7877785
± gives the uncertainty stated by the source.

Experiment: self-splicing fitness, log relative to wild type (ln ratio); higher = more splicing; Tetrahymena group I intron in knt gene, E. coli kanamycin selection, DiMSum; sequences stand for … in CUCUCU…GGAGGGAAAAGUUAUCAGGCAUGCACCUGGUAGCUAGUCUUUAAACCAAUAGAUUGCAUCGGUUUAAAAGGCAAGACCGUCAAAUUGCGGGAAAGGGGUCAACAGCCGUUCAGUACCAAGUCUCAGGGGAAACUUUGAGAUGGCCUUGCAAAGGGUAUGGUAAUAAGCUGACGGACAUGGUCCUAACCACGCAGCCAAGUCCUAAGUCAACAGAUCUUCUGUUGAUAUGGAUGCAGUUCACAGACUAAAUGUCGGUCGGGGAAGAUGUAUUCUUCUCAUAAGAUAUAGUCGGACCUCUCCUUAAUGGGAGCUAGCGGAUGAAGUGAUGCAACACUGGAGCCGCUGGGAACUAAUUUGUAUGCGAAAGUAUAUUGAUUAGUUUUGGAGUACUCGUGGUCG
Summary of the method: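 DiMSum derived fitness as the error-weighted combination of fold changes across replicates, kanamycin versus no kanamycin, normalised to wild type. E. coli BL21(DE3) held the library, which randomised all eight P1ex-region intron nucleotides within the knt kanamycin-resistance gene on pET-22b(+). Six replicate transformations grew overnight at 37°C or 30°C on LB agar with or without 25 μg/mL kanamycin, also containing 100 μg/mL carbenicillin, 50 μM IPTG and 0.2% rhamnose, and pooled colonies were amplicon-sequenced on an Illumina HiSeq 2500.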

Sequence | self-splicing fitness (ln) (30 °C) | self-splicing fitness (ln) (37 °C)
CCACAGCAAUAUUACGUUAA | -3.12 ± 0.14 | -2.48 ± 0.14
GUGUAGCAAUAUUACGCUCG | -1 ± 0.18 | -0.53 ± 0.21
AUGGAGCAAUAUUACGUCCA | -0.783 ± 0.45 | -0.778 ± 0.34
UGGCAGCAAUAUUACGCUCG | -0.792 ± 0.083 | -0.0749 ± 0.11
CUCUAGCAAUAUUACGUGUC | -3.45 ± 0.21 | -3.91 ± 0.31
GUCUAGCAAUAUUACGGUGU | -0.578 ± 0.046 | -0.0594 ± 0.06
CGGUAGCAAUAUUACGAGGC |  | -0.808 ± 0.29
AGAUAGCAAUAUUACGAUUC | -1.7 ± 0.12 | -0.442 ± 0.16
CGCGAGCAAUAUUACGAUUG | -1.3 ± 0.12 | -0.15 ± 0.12
UUCGAGCAAUAUUACGUCCU | -3.78 ± 0.47 | -2.4 ± 0.41
UUAUAGCAAUAUUACGGAAA | -2.13 ± 0.22 | -1.67 ± 0.23
CCUAAGCAAUAUUACGAAUG | -1.63 ± 0.14 | -2.23 ± 0.16
UUCGAGCAAUAUUACGGGCC | -3.79 ± 0.32 | -2.21 ± 0.33
UCCCAGCAAUAUUACGGCGA | -0.651 ± 0.063 | -0.335 ± 0.078
UGGAAGCAAUAUUACGAAAU | -3.52 ± 0.29 | -2.27 ± 0.22
CUUUAGCAAUAUUACGAGUU |  | -2.96 ± 0.4
AAGAAGCAAUAUUACGCUUA | -1.05 ± 0.12 | -0.977 ± 0.13
ACGUAGCAAUAUUACGGAAG | -3.32 ± 0.3 | -1.91 ± 0.28
ACCCAGCAAUAUUACGUAAC | -1.49 ± 0.065 | -1.17 ± 0.1
GAUUAGCAAUAUUACGUGCG | -2.8 ± 0.16 | 0.0923 ± 0.12
CUUGAGCAAUAUUACGUUGG | -2.66 ± 0.28 | -0.601 ± 0.18
CCGAAGCAAUAUUACGUCUU | -3.58 ± 0.15 | -2.98 ± 0.21
CAUUAGCAAUAUUACGUUCU | -2.56 ± 0.15 | -2.62 ± 0.16
AUCAAGCAAUAUUACGGCGC | -1.01 ± 0.093 | 0.428 ± 0.14
GUUUAGCAAUAUUACGUUUC | -2.17 ± 0.21 | -2.07 ± 0.23
ACAUAGCAAUAUUACGAGUG | -1.16 ± 0.073 | -1.05 ± 0.09

Sequence | self-splicing fitness (ln) (30 °C) | self-splicing fitness (ln) (37 °C)
AUCGAGCAAUAUUACGAUCA |  | -0.193 ± 0.26
UCGAAGCAAUAUUACGAGUC | -3.45 ± 0.42 | 
GCUGAGCAAUAUUACGUACG | -2.59 ± 0.27 | -1.16 ± 0.29
AUCGAGCAAUAUUACGGAGG | -1.89 ± 0.39 | -0.942 ± 0.25
UGCAAGCAAUAUUACGAGUA | -0.888 ± 0.083 | 0.181 ± 0.083
AUCGAGCAAUAUUACGCGAU | -2.06 ± 0.27 | 
CACUAGCAAUAUUACGGCUC | -2.9 ± 0.17 | -1.79 ± 0.3
AACCAGCAAUAUUACGGCGU | 0.196 ± 0.054 | 0.259 ± 0.068
UAGCAGCAAUAUUACGCAAC | -2.32 ± 0.16 | -2.24 ± 0.22
AAGCAGCAAUAUUACGUUAA | -1.76 ± 0.12 | -2.14 ± 0.14
CGUGAGCAAUAUUACGGACC | -2.51 ± 0.49 | 
AUCAAGCAAUAUUACGGAGC | -2.98 ± 0.28 | -1.92 ± 0.25
AGAUAGCAAUAUUACGUGCC | -0.685 ± 0.2 | -0.528 ± 0.22
GUAUAGCAAUAUUACGAUAG | -1.67 ± 0.099 | -0.533 ± 0.1
AAAGAGCAAUAUUACGCAAG | -3.4 ± 0.19 | -3.51 ± 0.36
CGAUAGCAAUAUUACGUAAU | -2.55 ± 0.15 | -1.92 ± 0.15
UUGGAGCAAUAUUACGGCAG | -1.6 ± 0.17 | -1.01 ± 0.22
CUUCAGCAAUAUUACGUUCC | -2.64 ± 0.43 | -1.71 ± 0.36
AGACAGCAAUAUUACGGACG | -1.14 ± 0.066 | -0.531 ± 0.071
UCUAAGCAAUAUUACGGGUG | -1.54 ± 0.076 | -0.964 ± 0.099
GGACAGCAAUAUUACGUGAG | 0.177 ± 0.058 | -0.254 ± 0.062
AGUAAGCAAUAUUACGGCCC | -0.317 ± 0.14 | -0.0183 ± 0.22
GGGCAGCAAUAUUACGCCGU | -2.84 ± 0.21 | -1.01 ± 0.15
UAUGAGCAAUAUUACGUGCA | -2.09 ± 0.13 | -2.32 ± 0.15
CGCGAGCAAUAUUACGAGUA | -3.55 ± 0.32 | -2.61 ± 0.27
GGGCAGCAAUAUUACGAAGG | -3.32 ± 0.27 | -2.45 ± 0.35

Sequence | self-splicing fitness (ln) (30 °C) | self-splicing fitness (ln) (37 °C)
UUCUAGCAAUAUUACGCUUU | -3.89 ± 0.26 | -1.82 ± 0.22
GUUCAGCAAUAUUACGAUCG | -0.518 ± 0.13 | -0.548 ± 0.16
UCCCAGCAAUAUUACGCGAU | -3.29 ± 0.21 | -2.64 ± 0.21
CGGCAGCAAUAUUACGUUCC | -2.59 ± 0.14 | -1.77 ± 0.21
UCAAAGCAAUAUUACGGUAA | -2.48 ± 0.16 | -0.268 ± 0.13
UCUAAGCAAUAUUACGGGCA | -1.42 ± 0.12 | -0.441 ± 0.12
AUACAGCAAUAUUACGUCAG | -3.05 ± 0.13 | -1.23 ± 0.13
GAUGAGCAAUAUUACGUUCU | -2.89 ± 0.16 | -1.32 ± 0.12
CGAAAGCAAUAUUACGACUA | -1.51 ± 0.14 | -0.539 ± 0.13
GGACAGCAAUAUUACGAUGG | -2.41 ± 0.1 | -2.05 ± 0.13
UGCGAGCAAUAUUACGAAAU | -2.85 ± 0.18 | -2.65 ± 0.38
CUGGAGCAAUAUUACGUUCU | -2.43 ± 0.26 | -1.68 ± 0.49
UCGCAGCAAUAUUACGAGAU | -3.01 ± 0.25 | -1.86 ± 0.25
AAUAAGCAAUAUUACGAGUC | -3.1 ± 0.28 | -1.48 ± 0.18
GGACAGCAAUAUUACGACAU | -0.378 ± 0.012 | -0.0143 ± 0.032
ACCGAGCAAUAUUACGUGCG | -1.64 ± 0.082 | -1.37 ± 0.13
UUGAAGCAAUAUUACGACUC | -1.26 ± 0.079 | -0.526 ± 0.11
CCGGAGCAAUAUUACGCUGU | -4.31 ± 0.34 | -2.4 ± 0.4
UCCGAGCAAUAUUACGACUU | -2.69 ± 0.33 | -2.98 ± 0.43
AACGAGCAAUAUUACGACAU | -2.2 ± 0.015 | -1.33 ± 0.033
GACUAGCAAUAUUACGCGAG | -2.49 ± 0.21 | -1.28 ± 0.15
UGAUAGCAAUAUUACGUGUU | -3.87 ± 0.19 | -2.6 ± 0.2
CUUAAGCAAUAUUACGAUAA |  | -3.18 ± 0.35
UGGGAGCAAUAUUACGUUUA | -2.62 ± 0.29 | -2.92 ± 0.33
GUCUAGCAAUAUUACGCUGG | -2.84 ± 0.36 | -2.2 ± 0.27
ACAAAGCAAUAUUACGUGAA | -1.51 ± 0.074 | -1.5 ± 0.083
